Consider two molecules from PMC8795421 (2022).

The chains are these.
B1: Biotinylated recombinant CD97, N-terminal extracellular domain (residues 24-540) with Fc domain and avidin tag (Fc fusion)
chain: RGCARWCPQNSSCVNATACRCNPGFSSFSEIITTPTETCDDINECATPSKVSCGKFSDCWNTEGSYDCVCSPGYEPVSGAKTFKNESENTCQDVDECQQNPRLCKSYGTCVNTLGSYTCQCLPGFKFIPEDPKVCTDVNECTSGQNPCHSSTHCLNNVGSYQCRCRPGWQPIPGSPNGPNNTVCEDVDECSSGQHQCDSSTVCFNTVGSYSCRCRPGWKPRHGIPNNQKDTVCEDMTFSTWTPPPGVHSQTLSRFFDKVQDLGRDSKTSSAEVTIQNVIKLVDELMEAPGDVEALAPPVRHLIATQLLSNLEDIMRILAKSLPKGPFTYISPSNTELTLMIQERGDKNVTMGQSSARMKLNWAVAAGAEDPGPAVAGILSIQNMTTLLANASLNLHSKKQAELEEIYESSIRGVQLRRLSAVNSIFLSHNNTKELNSPILFAFSHLESSDGEAGRDPPAKDVMPGPRQELLCAFWKSDSDRGGHWATEGCQVLGSKNGSTTCQCSHLSSFAILMAHY
modifications: biotin (in situ biotinylation by BirA-ER during expression)
B2: DAF-Fc (decay accelerating factor, DAF/CD55, fused to the human IgG1 Fc region) (Fc fusion)
chain: DCGLPPDVPNAQPALEGRTSFPEDTVITYKCEESFVKIPGEKDSVICLKGSQWSDIEEFCNRSCEVPTRLNSASLKQPYITQNYFPVGTVVEYECRPGYRREPSLSPKLTCLQNLKWSTAVEFCKKKSCPNPGEIRNGQIDVPGGILFGATISFSCNTGYKLFGSTSSFCLISGSSVQWSDPLPECREIYCPAPPQIDNGIIQGERDHYGYRQSVTYACNKGFTMIGEHSIYCTVNNDEGEWSGPPPECRGKSLTSKVPPTVQKPTTVNVPTTEVSPTSQKTTTKTTTPNAQATRSTPVSRTTKHFHETTPNKGSGTTS

What all share (experiment): BLI
On the technique in general: In BLI a coated tip is dipped into the sample, and binding shifts an interference pattern.

The target in experiment [1] is CD97 Ab with same binding site as DAF-Fc.
Experiment [2] concerns the target CD97 Ab with known Kd.
In experiment [3] the target is B1.

The Kd is the constant that tells how readily two partners part at equilibrium. As for B1, the Kd came out at 4.5 nM in experiment [1] and 7700 nM in experiment [2].

Take B2: the Kd in experiment [3] turned out to be 340 nM.
